Nine substances from patent publication US20080267976A1 can be followed below.

As a reminder, the IC50 is the point on the concentration scale where inhibition reaches its midpoint. Higher therefore signals weaker potency.

One test addresses V158 FcγRIIIa (UniProt P08637). As to the kind of experiment: competition AlphaScreen. For orientation: Alpha assays give light when donor and acceptor beads are brought close together.
For S239D/I332E H3.69_L3.71 AC10 IgG1, the IC50 was determined as 5.1 nM. On the same count and under the same terms, with “S239D/I332E/A330Y H3.69_V2_L3.71 AC10 IgG(1/2) ELLGG” the figure was 52 nM; with “S239D/I332E/A330Y/K326E H3.69_V2_L3.71 AC10 IgG(1/2) ELLGG”, 4 nM; with “S239D/I332E/H268E H3.69_V2_L3.71 AC10 IgG(1/2) ELLGG”, 0.882 nM. “S239D/I332E/K246H/S324I H3.69_V2_L3.71 AC10 IgG(1/2) ELLGG” gave an IC50 of 10.7 nM. On the same count and under the same terms, the figure for “S239D/I332E/K246H/T260H H3.69_V2_L3.71 AC10 IgG(1/2) ELLGG” is 5.79 nM; for “S239D/I332E/K326T H3.69_V2_L3.71 AC10 IgG(1/2) ELLGG” it is 5.26 nM; for “S239D/I332E/S298A H3.69_V2_L3.71 AC10 IgG(1/2) ELLGG” it is 1.28 nM. Substance “S239D/I332E/S324G H3.69_V2_L3.71 AC10 IgG(1/2) ELLGG” showed an IC50 of 8.93 nM.

The target of another test is V158 FcγRIIIa (UniProt P08637). As to the kind of experiment: competition AlphaScreen; second row.
Sequence of V158 FcγRIIIa (P08637 17-208 F176V): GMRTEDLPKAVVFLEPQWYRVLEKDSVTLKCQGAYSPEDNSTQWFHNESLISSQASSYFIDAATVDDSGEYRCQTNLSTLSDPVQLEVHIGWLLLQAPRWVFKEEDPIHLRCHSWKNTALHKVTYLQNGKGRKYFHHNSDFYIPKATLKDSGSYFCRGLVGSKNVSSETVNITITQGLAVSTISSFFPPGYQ
On to S239D/I332E H3.69_L3.71 AC10 IgG1, for which the IC50 came to 0.531 nM.
